Results published in paper PMC7460627 (International Journal of Molecular Sciences, 2020).
Ends that are not written are not given here.

Experiments:
[1] = test system: lettuce eIF4E (all forms); experiment: Comparison of VPg / m7GTP binding to eIF4E forms (competition, overall affinity)
Excerpt: (§1) For optical characteristics of the instrument, see [36].

[2] = molecular target: lettuce eIF4E^2 (resistant cultivar; A70P) (lettuce); experiment: other fluorescence titration; steady state decrease of eIF4E tryptophan intrinsic fluorescence upon titration by VPg or VPg peptide; 25 °C, 20 mM HEPES pH 7.5, 0.25 mM NaCl, 1 mM DTT
[3] = molecular target: lettuce eIF4E^1 (resistant cultivar; ∆(108–110)H and A186S) (lettuce); experiment: as above
[4] = molecular target: lettuce eIF4E N-terminus-deleted form, eIF4E^0 [∆1–46] (lettuce); experiment: as above
[5] = molecular target: lettuce eIF4E^2 (resistant cultivar; A70P) (lettuce); experiment: other fluorescence titration; as a1, but eIF4E 0.5 µM pre-incubated with m7GTP 2 µM prior to titration by VPg; 25 °C
[6] = molecular target: lettuce eIF4E^1 (resistant cultivar; ∆(108–110)H and A186S) (lettuce); experiment: as above
[7] = molecular target: lettuce eukaryotic translation initiation factor 4E, eIF4E^0 (susceptible cultivar) (lettuce); experiment: as above
lettuce eIF4E = molecular target: T1, lettuce eIF4E (Lactuca sativa, UniProt A0A2J6L8Y7); experiment: Peptide affinity from eIF4E intrinsic fluorescence decay; format: binding
T1 construct: to obtain untagged full-length eIF4E and eIF4E∆(1–46); made in house; host or cells: E. coli BL21-AI
Excerpt: as §1

eIF4E = molecular target: T2, eIF4E (Lactuca sativa, UniProt A0A2J6L8Y7); experiment: Stopped-flow kinetics, quenching of eIF4E tryptophan fluorescence; format: binding, lettuce
T2 construct: to obtain untagged full-length eIF4E and eIF4E∆(1–46); made in house; host or cells: E. coli BL21-AI
Method: We hypothesized that the 107–120 region could modulate the mechanism of association, the details of which cannot be grasped through equilibrium thermodynamics. Consequently, fast kinetics measurement were performed by stopped flow to compare VPg88–111 and VPg88–120 association with eIF4E (Figure 3).
(A) The quenching of eIF4E tryptophan fluorescence was monitored after mixing 0.3 µM eIF4E with 1 µM VPg88–111 (final concentration). The excitation wavelength was 283 nm. Inset, plots of 1/kobs versus 1/[peptide] at 2.5, 5, 7.5 and 10 µM peptide concentration. VPg88–111 open circles, VPg88–120, open triangles. (B) Stopped-flow traces of VPg88–111*–eIF4E complex formation acquired at 520 nm upon excitation at 480 nm. VPg88–111*: doubly labeled fluorescent derivative of VPg88–111.
The eIF4E tryptophan fluorescence decrease concomitant to association was monitored for several peptide concentrations (Figure S3). A single exponential model fitted satisfactorily with the experimental data allowing the determination of kobs, the apparent constant of the complex formation.
as §1

[8] = molecular target: lettuce eukaryotic translation initiation factor 4E, eIF4E^0 (susceptible cultivar) (lettuce); experiment: other fluorescence titration; steady state decrease of eIF4E tryptophan intrinsic fluorescence upon titration by VPg or VPg peptide; 25 °C, 20 mM HEPES pH 7.5, 0.25 mM NaCl, 1 mM DTT
[9] = molecular target: lettuce eukaryotic translation initiation factor 4E, eIF4E^0 (susceptible cultivar) (lettuce); experiment: stopped-flow fluorescence kinetics; quenching of eIF4E tryptophan fluorescence after mixing 0.3 µM eIF4E with peptide (1 µM; 2.5, 5, 7.5 and 10 µM); excitation 283 nm; single exponential fit, kobs
[10] = molecular target: VPg_(88–111)*, doubly labeled fluorescent derivative of VPg_(88–111) (lettuce mosaic virus (LMV strain AF199)); experiment: other fluorescence titration; steady state titration by eIF4E of 250 nM VPg_(88–111)*, read by the AEDANS to fluorescein resonance energy transfer within the peptide; AEDANS excited at 337 nm; simple bimolecular equilibrium model; 25 °C, 20 mM HEPES pH 7.5, 0.25 mM NaCl, 1 mM DTT
[11] = molecular target: T3, lettuce eukaryotic translation initiation factor 4E, eIF4E^0 (susceptible cultivar) (lettuce, UniProt A0A2J6L8Y7 1-235)
T3 chain: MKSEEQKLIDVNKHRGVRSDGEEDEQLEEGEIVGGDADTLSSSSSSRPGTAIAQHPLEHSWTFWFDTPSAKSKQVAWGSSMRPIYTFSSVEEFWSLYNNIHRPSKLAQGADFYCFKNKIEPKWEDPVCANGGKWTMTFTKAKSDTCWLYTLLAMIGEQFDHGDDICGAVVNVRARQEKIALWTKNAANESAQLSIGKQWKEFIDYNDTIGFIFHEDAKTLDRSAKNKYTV

## Cn1c[n+]([C@@H]2O[C@H](COP(=O)([O-])OP(=O)(O)OP(=O)(O)O)[C@@H](O)[C@H]2O)c2nc(N)[nH]c(=O)c21 [m7GTP]
[1]
  competition between VPg and m7GTP: compete for their binding to eIF4E

## LMV VPg from the non-resistance-breaking strain (LMV0) (natural protein)
[2]
  Kd: 288 nM
[3]
  Kd: 340 nM
[4]
  Kd: 276 nM
[5]
  KD with m7GTP: 703 nM
[6]
  KD with m7GTP: 632 nM
[7]
  KD with m7GTP: 746 nM

## LSGGEIESEHMRSG [VPg107–120]
Lettuce eIF4E
  Kd: 852 ± 57 nM

## VFSDIGLVQDAFGKERLKLLSGGE [VPg88–111]
Lettuce eIF4E; VPg88–111 versus VPg88–120
  affinity for eIF4E, in words: comparable affinities
eIF4E; 0.3 µM eIF4E, 2.5, 5, 7.5 and 10 µM peptide, single exponential fit
  dependence of 1/kobs or kobs on peptide concentration: gave a straight line, featuring the pseudo first order nature of the association depending on ligand concentration
eIF4E; stopped flow, eIF4E tryptophan quenching
  kinetic model of complex formation: one-step process

## VFSDIGLVQDAFGKERLKLLSGGEIESEHMRSG [VPg88–120]
Lettuce eIF4E
  Kd: 67 ± 7 nM

## VPg_(88–111) synthetic peptide
[8]
  Kd: 72 nM

## VPg_(88–120) synthetic peptide
[8]
  Kd: 67 nM
[9]
  k2 (second step of the two-step model, conformational transition of the bound peptide): 33 s⁻¹

## VPg_(107–120) synthetic peptide
[8]
  Kd: 852 nM

## lettuce eukaryotic translation initiation factor 4E, eIF4E^0 (susceptible cultivar) (from UniProt A0A2J6L8Y7 1-235) (natural protein)
[10]
  Kd: 63 nM

B1: LMV VPg from the non-resistance-breaking strain (LMV0) (natural protein)
chain: GKGKRQRQKLRYRQARDNKVGIEVYGDDATMEHYFGAAYTEKGKKSGKTKGMGTKNRRFVNMYGYNPEDFSFIRFLDPLTGKTMDEQVFSDISLVQDAFSKERLKLLSEGEIESEHMRNGIRAYLVKNLTTAALEIDMTPHNSCQLGAKTNNIAGYVDREYELRQTGEARVVAPALIPKDNPITDEDIPVKHE
[11]
  Kd: 202 nM

B2: whole VPg from LMV-AF199 strain (natural protein)
chain: GKGKRQRQKLRYRQARDNKVGIEVYGDDATMEHYFGAAYTEKGKKSGKTKGMGTKNRKFVNMYGYNPEDFSFIRFLDPLTGKTMDEQVFSDIGLVQDAFGKERLKLLSGGEIESEHMRSGIRAYLVKNLTTAALEIDMTPHNSCQLGIKTNNIAGFVDREYELRQTGEARVVAPALIPKDNPITDEDIPVKHE
[11]
  Kd: 82 nM
